# Experiments:
# [1] = biological target: apo-transferrin (iron-free serotransferrin) (UniProt P02787); assay: SPR; conditions: 150 mM NaCl, pH 7.4: 20 mM HEPES, pH 6.0: 20 mM PIPES
# [2] = biological target: the molecule itself
# Chain of apo-transferrin (iron-free serotransferrin) (P02787 whole entry): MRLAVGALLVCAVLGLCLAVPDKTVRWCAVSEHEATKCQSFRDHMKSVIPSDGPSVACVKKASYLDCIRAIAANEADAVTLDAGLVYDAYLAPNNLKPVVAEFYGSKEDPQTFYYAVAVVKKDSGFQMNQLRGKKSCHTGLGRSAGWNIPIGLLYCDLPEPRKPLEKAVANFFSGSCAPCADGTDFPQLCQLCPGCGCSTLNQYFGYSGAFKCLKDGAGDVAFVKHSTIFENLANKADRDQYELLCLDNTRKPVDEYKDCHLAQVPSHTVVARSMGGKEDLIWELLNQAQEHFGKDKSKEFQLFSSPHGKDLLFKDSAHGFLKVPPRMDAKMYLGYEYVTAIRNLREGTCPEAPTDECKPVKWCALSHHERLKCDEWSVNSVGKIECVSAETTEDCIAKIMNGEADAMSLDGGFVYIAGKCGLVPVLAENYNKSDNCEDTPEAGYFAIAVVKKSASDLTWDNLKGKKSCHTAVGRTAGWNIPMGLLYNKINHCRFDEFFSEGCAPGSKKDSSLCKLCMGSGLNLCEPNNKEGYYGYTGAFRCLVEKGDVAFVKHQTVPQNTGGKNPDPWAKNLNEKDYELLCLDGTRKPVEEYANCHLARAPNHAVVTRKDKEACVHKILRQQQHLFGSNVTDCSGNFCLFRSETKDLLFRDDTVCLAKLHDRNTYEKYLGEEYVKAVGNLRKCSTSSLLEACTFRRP
Molecule,ka1 ([1]; pH 6.0),ka2 ([1]; pH 6.0),kd1 ([1]; pH 6.0),ka1 ([1]; pH 7.4),ka2 ([1]; pH 7.4),kd1 ([1]; pH 7.4),kd2 ([1]; pH 6.0),kd2 ([1]; pH 7.4),stoichiometry N [2]
"EGFP-TfR1 (full-length transferrin receptor 1, EGFP fusion)",1.01e+06 M⁻¹ s⁻¹,3.01e+06 M⁻¹ s⁻¹,1.2 s⁻¹,450000 M⁻¹ s⁻¹,19000 M⁻¹ s⁻¹,22000 s⁻¹,–,–,–
"EGFP-TfR2 (full-length transferrin receptor 2, EGFP fusion)",150000 M⁻¹ s⁻¹,34000 M⁻¹ s⁻¹,1100 s⁻¹,66000 M⁻¹ s⁻¹,6300 M⁻¹ s⁻¹,44000 s⁻¹,643 s⁻¹,8160 s⁻¹,–
EGFP-TfR2-TfR1HD (TfR2 chimera carrying the TfR1 helical domain) helical domain swap: TfR2 637-801 replaced by TfR1 605-760,160000 M⁻¹ s⁻¹,1.03e+06 M⁻¹ s⁻¹,350 s⁻¹,510000 M⁻¹ s⁻¹,163000 M⁻¹ s⁻¹,2500 s⁻¹,4950 s⁻¹,78300 s⁻¹,–
"full-length EGFP-TfR2 (transferrin receptor-2) (receptor, human, UniProt Q9UP52 1-801, looked up) MERLWGLFQRAQQLSPRSSQTVYQRVEGPRKGHLEEEEEDGEEGAETLAHFCPMELRGPEPLGSRPRQPNLIPWAAAGRRAAPYLVLTALLIFTGAFLLGYVAFRGSCQACGDSVLVVSEDVNYEPDLDFHQGRLYWSDLQAMFLQFLGEGRLEDTIRQTSLRERVAGSAGMAALTQDIRAALSRQKLDHVWTDTHYVGLQFPDPAHPNTLHWVDEAGKVGEQLPLEDPDVYCPYSAIGNVTGELVYAHYGRPEDLQDLRARGVDPVGRLLLVRVGVISFAQKVTNAQDFGAQGVLIYPEPADFSQDPPKPSLSSQQAVYGHVHLGTGDPYTPGFPSFNQTQFPPVASSGLPSIPAQPISADIASRLLRKLKGPVAPQEWQGSLLGSPYHLGPGPRLRLVVNNHRTSTPINNIFGCIEGRSEPDHYVVIGAQRDAWGPGAAKSAVGTAILLELVRTFSSMVSNGFRPRRSLLFISWDGGDFGSVGSTEWLEGYLSVLHLKAVVYVSLDNAVLGDDKFHAKTSPLLTSLIESVLKQVDSPNHSGQTLYEQVVFTNPSWDAEVIRPLPMDSSAYSFTAFVGVPAVEFSFMEDDQAYPFLHTKEDTYENLHKVLQGRLPAVAQAVAQLAGQLLIRLSHDRLLPLDFGRYGDVVLRHIGNLNEFSGDLKARGLTLQWVYSARGDYIRAAEKLRQEIYSSEERDERLTRMYNVRIMRVEFYFLSQYVSPADSPFRHIFMGRGDHTLGALLDHLRLLRSNSSGTPGATSSTGFQESRFRRQLALLTWTLQGAANALSGDVWNIDNNF",–,–,–,–,–,–,–,–,2
